For experiment [1], the target named is light-chain single-domain antibody L6 (mCD16-specific VHHL). In words: BLI. Particulars: both partners purified.
The target in experiment [2] is T1, human tumor necrosis factor alpha (hTNF-α)-His (human, UniProt P01375).
T1 construct: also called hTNF-a
In words: BLI. The note with it: both partners purified.

T1 sequence (P01375 whole entry): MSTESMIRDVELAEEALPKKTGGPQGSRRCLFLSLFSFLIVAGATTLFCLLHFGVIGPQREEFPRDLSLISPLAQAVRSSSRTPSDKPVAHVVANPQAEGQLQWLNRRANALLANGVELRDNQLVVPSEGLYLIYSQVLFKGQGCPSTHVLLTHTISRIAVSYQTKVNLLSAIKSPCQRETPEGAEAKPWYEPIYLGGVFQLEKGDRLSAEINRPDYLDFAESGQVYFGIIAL

B1: mouse CD16 (mCD16), his-tagged (receptor, UniProt P08508 31-215, looked up)
chain: ALPKAVVKLDPPWIQVLKEDMVTLMCEGTHNPGNSSTQWFHNGRSIRSQVQASYTFKATVNDSGEYRCQMEQTRLSDPVDLGVISDWLLLQTPQRVFLEGETITLRCHSWRNKLLNRISFFHNEKSVRYHHYKSNFSIPKANHSHSGDYYCKGSLGSTQHQSKPVTITVQDPATTSSISLVWYHT
In general, Kd refers to the equilibrium constant for the complex coming apart. The low end stands for a tighter complex, the high end for a looser complex. B1 came in with a Kd in experiment [1] of 54.3 ± 1.41 nM.

B2: hIgG4 bsAb by modular replacement: golimumab (Gmab) heavy chain with L6 light chain (bispecific antibody, V domains shown)
VH: QVQLVESGGGVVQPGRSLRLSCAASGFIFSSYAMHWVRQAPGNGLEWVAFMSYDGSNKKYADSVKGRFTISRDNSKNTLYLQMNSLRAEDTAVYYCARDRGIAAGGNYYYYGMDVWGQGTTVTVSS
VL: EIVLTQSPGTLSLSPGERATLSCRASGSTFSSYTLAWYQQKPGQAPRLLIYIYSDGGRTSRATGIPDRFSGSGSGTDLTLTISRLEPEDFAVYYCNAESPFYDYDYWGKGTKVEIK
As for B2, in experiment [2], the binding result is on record as “binds”.
